Source: article PMC6586323, “Comparative analysis of the metal-dependent structural and functional properties of mouse and human SMP30” (PLoS ONE, 2019)

Legend:
Test in all cases: purified protein
[1] = substrate: O=C1CCCS1; format: biochemical, Homo sapiens; conditions: 1 mM Ca2+, 50 mM Tris-HCl pH 7.0, 0.1 mM DTNB, substrate range 1-10 mM
[2] = substrate: CCOP(=O)(OCC)SCCSCC; format: biochemical, Homo sapiens; conditions: 1 mM Ca2+, 50 mM Tris-HCl pH 8.0, 0.1 mM DTNB, substrate range 1-10 mM
[3] = substrate: O=C1CCCS1; format: biochemical, Mus musculus; conditions: 1 mM Ca2+, 50 mM Tris-HCl pH 7.0, 0.1 mM DTNB, substrate range 1-10 mM
[4] = substrate: CCOP(=O)(OCC)SCCSCC; format: biochemical, Mus musculus; conditions: 1 mM Ca2+, 50 mM Tris-HCl pH 8.0, 0.1 mM DTNB, substrate range 1-10 mM

Protein | Km [1] | Vmax [1] | kcat [1] | kcat/Km [1] | Km [2] | Vmax [2] | kcat [2] | kcat/Km [2] | Km [3] | Vmax [3] | kcat [3] | kcat/Km [3] | Km [4] | Vmax [4] | kcat [4] | kcat/Km [4]
HuSMP30 (Homo sapiens) (protein) MSSIKIECVLPENCRCGESPVWEEVSNSLLFVDIPAKKVCRWDSFTKQVQRVTMDAPVSSVALRQSGGYVATIGTKFCALNWKEQSAVVLATVDNDKKNNRFNDGKVDPAGRYFAGTMAEETAPAVLERHQGALYSLFPDHHVKKYFDQVDISNGLDWSLDHKIFYYIDSLSYSVDAFDYDLQTGQISNRRSVYKLEKEEQIPDGMCIDAEGKLWVACYNGGRVIRLDPVTGKRLQTVKLPVDKTTSCCFGGKNYSEMYVTCARDGMDPEGLLRQPEAGGIFKITGLGVKGIAPYSYAG | 19.8 ± 2.9 mM | 0.453 µM/min | 0.102 s⁻¹ | 5.17 M⁻¹ s⁻¹ | 17.45 ± 5 mM | 0.0357 µM/min | 0.00808 s⁻¹ | 0.467 M⁻¹ s⁻¹ |  |  |  |  |  |  |  | 
MoSMP30 (Mus musculus) (protein) MSSIKVECVLRENYRCGESPVWEEASQSLLFVDIPSKIICRWDTVSNQVQRVAVDAPVSSVALRQLGGYVATIGTKFCALNWENQSVFVLAMVDEDKKNNRFNDGKVDPAGRYFAGTMAEETAPAVLERHQGSLYSLFPDHSVKKYFDQVDISNGLDWSLDHKIFYYIDSLSYTVDAFDYDLQTGQISNRRIVYKMEKDEQIPDGMCIDAEGKLWVACYNGGRVIRLDPETGKRLQTVKLPVDKTTSCCFGGKDYSEMYVTCARDGLNAEGLLRQPDAGNIFKITGLGVKGIAPYSYAG |  |  |  |  |  |  |  |  | 39.49 ± 7.9 mM | 0.286 µM/min | 0.0647 s⁻¹ | 1.63 M⁻¹ s⁻¹ | 3.57 ± 1.5 mM | 0.0085 µM/min | 0.00193 s⁻¹ | 0.533 M⁻¹ s⁻¹
